Results on 16 molecules are retold here after patent US20200093909A1 (INSTITUTE FOR RESEARCH IN BIOMEDICINE, published 2020).

One test concerns the target T1, NPDP-peptide (Plasmodium falciparum).
T1 peptide: KQPADGNPDPNANPNKNN
In words: ELISA, peptide coated, titrated antibody.

A further test deals with T2, NANP-peptide (Plasmodium falciparum).
T2 construct: CSP repeat peptide coated at 2 ug/mL in ELISA; also called NANP repeat region peptide
T2 peptide: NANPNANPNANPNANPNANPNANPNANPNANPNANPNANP
Put plainly: ELISA, peptide coated, titrated antibody.

For another test, the target named is T3, 22-110-peptide (Plasmodium falciparum).
T3 construct: N-terminal CSP peptide coated at 1 ug/mL in ELISA
T3 peptide: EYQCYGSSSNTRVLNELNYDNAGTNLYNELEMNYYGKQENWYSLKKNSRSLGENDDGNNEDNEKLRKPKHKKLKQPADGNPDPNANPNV
Put plainly: ELISA, peptide coated, titrated antibody.

Test [1] deals with T4, CSP C-terminal peptide 282-383 (Plasmodium falciparum).
T4 construct: Coated at 1 ug/ml in ELISA; also called C-terminus of CSP
Put plainly: ELISA, C-terminal peptide 282-383 coated at 1 ug/ml. (An ELISA detects its analyte on a solid surface through an enzyme-linked reagent.)

In test [2] the target is T4, CSP C-terminal peptide 282-383. In words: ELISA, peptide coated at 1 ug/ml, B cell supernatants from 1/3 to 1/648 dilution.

B1: MGU1 (antibody, V domains shown)
VH: QVQLVESGGGVVQPGRSLRLSCAASGFAFSSYGMNWVRQAPGKGLEWVAVIWHDGTNKYYRDSVKGRFIISRDNAKNTLYLQMDSLSAEDTAMYYCAIWYLDSPDHGFDIWGRGTMVTVSS
VL: QLVLTQSPSASASLGVSVTLTCTLNNGHSSNAIAWHQQQPGKGPRYLMKVNSDGSHNKGAAVPDRFSGSSSGTERHLTISSLQSDDEADYYCQAWDSGIWVFGGGTKLTVL
With B1, the binding result with NPDP-peptide is “binds”; with NANP-peptide it was “binds”; in the test with 22-110-peptide it was “binds”; in test [1] it was “no binding”.

B2: MGU10 (antibody, V domains shown)
VH: QVQLVESGGGVVQPGRSLRLSCAASGFAFSNYGMNWVRQAPGKGLEWVAVIWHDGSLKYYTQSVKGRFTISRDNAKNTLFLQMDSLSADDTAMYYCTVWYLETPDDGFDIWGRGTMVTVSS
VL: QLVLTQPPSASASLGVSVTLTCTLSHGHTSKAIAWHQQQPGKGPRYLMKVNSDGSHTKGAAVPDRFSGSTSGAERHFTISNLQSDDEADYYCQAWDSGIWVFGGGTKLTVL
As for B2, the binding result in test [1] is given as “no binding”.

B3: MGU11 (antibody, V domains shown)
VH: QVQLVESGGGVVQPGRSLRLSCVASGFSFSSYGMHWVRQAPGKGLEWVAVIWYDGTNKYYADSVKGRFTISRDNTKNTLYLQMNSLRADDTAMYYCANDIAGWGYDGSNAWGQGTLVTVSS
VL: LSLPVTPGQPASISCKSSQSLVYSDGNTYLNWFQQRPGQSPRRLIYKVSNRDSGVPDRFSGSGSGTDFTLKISRVEAEDVGVYYCMQGTVGFTFGPGTTVDIK
B3: in test [1], the binding result is listed as “no binding”.

B4: MGH2 (antibody, V domains shown)
VH: QVQLVESGGGVVQPGGSLRLSCTASGFSFSSYAMHWVRQAPGKGLEWVAYTRYDGSNKFYLDSVQGRFTISRDNSKNTLYLEMDSLRLEDTAVYFCAKVGDGTVAGTIDYWGQGTLVTVSS
VL: YIVMTQSPLSLPVTLGQPASISCRSSQSLVYSDGNTYLNWYQQRPGQSPRRLIYKVSNRDSGVPDRFSGSGSGTDFTLKISRVEAEDVGVYYCMQGTHWWTFGQGTKVEIK
The term EC50 denotes the concentration at which the effect is half-maximal. The low end stands for a more potent agent, the high end for a less potent agent. On to B4, for which, in the test with NPDP-peptide, the EC50 is below 0.1 µg/mL. In test [1], the binding result is listed as “no binding”.

B5: MGH1 (antibody, V domains shown)
VH: QVQLVQSGAEVKKPGASVRVSCKTSGYTFTDYYVHWVRQAPGHGLECMGWINPYIGVSKYAQKFQGRVTLTRDTSISTAYMEISRLTSDDTAVYYCAACSNVGCYVYWGQGSLVTVSS
VL: DVVMTQSPLSLPVTLGQPASISCRSSQSLVYSDGNTYLNWFQQRPGQSPRRLIYKVSNRDSGVPDRFSGSGSGTDFTLKISRVEAEDVAIYFCMQGTHWPDTFGQGTKLEIK
Regarding B5, the binding result with NPDP-peptide is “binds”; with NANP-peptide it was “binds”; with 22-110-peptide, “binds”; in test [1] it was “no binding”.

B6: MGV3 (antibody, V domains shown)
VH: EVQVVESGGDLVQPGGSLRLSCAVYGFTVSDSYMSWVRQAPGKGLEWVSVIYSGSSTYYIDSVKGRFTISRDRSKNTLYLQMNTLRVEDTALYYCARGPNDYRNRKYYYYMDVWGKGTAVTVSS
VL: EIVLTQSPDTLSLSAGERVTLSCRASQSVDSPYLAWYQQRPGQTPRLLIFGASIRATDIPDRFSGGGSGTDFTLTISRLEPEDSGVYYCHQYGNAPYIFGQGTKLEIK
notes: also called biotin-labeled MGV3; biotinylated MGV3
On to B6, for which the binding result in the test with NPDP-peptide is “binds”; with NANP-peptide, “no binding”; in the test with 22-110-peptide, “binds”; in test [1] it was “no binding”.

B7: MGU12 (antibody, V domains shown)
VH: QVQLVESGGGVVQPGRSLRLSCAASGFSFSSYGMHWVRQAPGKGPEWVAVIWHDGSYSYYADSVRGRFTISRDNSKNTLYLQMNSLRPEDTGMYHCVKVEDYVRGSSHGGAFHIWGQGTMVTVSS
VL: DIQMTQSPSTLSASVGDRVTITCRASQTINNWLAWYQWKPGKAPELLIYKASSLESGVPSRFSGSGSGTEFTLTISSLQPDDFATYYCQQYSSYWTFGQGTKVDIK
Regarding B7, the EC50 with NPDP-peptide was below 0.1 µg/mL. In test [1], the binding result is recorded as “no binding”.

B8: MGU5 (antibody, V domains shown)
VH: QVQLVESGGGVVQPGRSLRLSCAASGFSFSSYGMHWVRQAPGKGLDWVALIWHDGTNKFYTDSVKGRFTISRDNSKDTLFLQMNSLRVEDTAVYYCTKRAGWGDALDIWGQGTMVTVSS
VL: DIQMTQSPSSLSASVGDRVTITCQASQDISNYLNWYQQKPGKAPKLLIYDASNLETGVPSRFSGSGSATDFTLTISSLQSEDIATYYCQQQRIFGGGTKVEIK
In the test with NPDP-peptide, B8 came in with an EC50 below 0.1 µg/mL. The binding result in test [1] was “no binding”.

B9: MGU8 (antibody, V domains shown)
VH: QVQLVESGGGVVQPGRSLRLSCAAGGFTFSNYGMHWVRQAPGKGLEWVALIWHDGTNKFYADSVKGRFTISRDNSKNTLSLQMDSLTTEDTAIYFCTKRGGWGDGSDIWGQGTMVTVSS
VL: DIQMTQSPSSLSASVGDRVTITCQASQDVDNYLNWYQHKPGKAPKLLIYDASNLATGVPSRFSGSGSSTDFTLTISSLQSDDFATYYCQQQRIFGGGTRVEIK
In the test with NPDP-peptide, B9 came in with a concentration giving a half-maximal response (EC50) below 0.1 µg/mL. For the same molecule, the binding result in test [1] is listed as “no binding”.

B10: MGG1 (antibody, V domains shown)
VH: EVQLVESGGGVVRPGGSLRLSCAASGFTFDDYAMSWVRQAPGKGLEWVSGINWNGGSTGYADSVKGRFTISRDNAKNSLYLQMNSLRAEDTALYHCARLGRAAREYYYYYMDVWGKGTTVTVSS
VL: QSVLTQPPSVSAAPGQKVTISCSGSSSNIGNNYVSWYQQLPGTAPKLLIYDNNKRPSGIPDRFSGSKSGTSATLGITGLQTGDEADYYCGTWDSSLSAGVFGGGTKLTVLG
B10: the results for the binding result (with 22-110-peptide; in test [1]) were “binds” and “no binding”, respectively.

B11: MGG4 (antibody, V domains shown)
VH: QVQLVESGGGVVQPGRSLRLSCAASGFRFSDYGMHWVRQAPGKGLEWVALIWYDGSNESYLDSVKGRFTISRDNSKNTLYLQMNNLRTEDTAVYYCAKLLVGITTDVFDVWGQGTVVTVSS
VL: DIVMTQSPDSLAVSLGERATINCRSSQSVLSSSNNKNYLAWYQHKPRQPPKLLIYWASTRESGVPDRFSGSGSGTDFTLTISSLQAEDVAVYYCQQYYTASPFFGGGTKVEIK
Turning to B11, the EC50 with NPDP-peptide was below 0.1 µg/mL. In test [1], the binding result is “no binding”.

B12: MGG8 (antibody, V domains shown)
VH: EVQLVESGGGLVQPGGSLKLSCAASGFMISGSVLHWVRQASGKGLEWLGRIRDKANNEATAYAASVKGRFTISRDDSKDTTYLQMNSLRIEDTAVYYCTRGIIVGDTWHFDPWGQGTLVTVSS
VL: DIVMTQTPLSLSVTPGQTASISCKSSESLLRSDGKTYLYWYLQKPGQSPQLLMYEVSKRFSGVPDRFSGSGSGTDFTLKISRVETDDVGIYYCMQSIQLVTFGQGTKVEIK
On to B12, for which the binding result with NPDP-peptide was “binds”; with NANP-peptide it was “binds”; with 22-110-peptide it was “binds”; in test [1], “no binding”.

B13: MGH3 (antibody, V domains shown)
VH: EVQLVESGGGLVKPGGSLRLSCAASGFTFSSYTMNWVRQAPGKGLEWVSSISSSGSYIYYADSVKGRCTISRDNAKNSLDLQMNSLRAEDAAVYYCARNVLDSSGYPTYFDYWGQGTLVTVSS
VL: DIVMTQSPLSLPVTPGEPASISCRSSQSLLYSNGYNYLDWYVQKPGQSPRLLIYLGSNRASGVPDRFSGSGSGTDFTLRISRVEAEDVGFYYCMQAVQTPLTFGGGTKVEIK
As to B13, the binding result is “binds” with NANP-peptide and “no binding” in test [1].

B14: MGU3 (antibody, V domains shown)
VH: EVLLVESGGGLVQPGGSLRLSCAASGFTFSDYNMHWVRQAPGKGLEWLSYISHSSSTTYYADSVRGRFTISRDNAKNSLYLQMNSLRAEDTAVYYCARLRPLSYSGRYRDYWGQGTLVTVSS
VL: DIQMTQSPSSLSASVGDRVTITCQASQDVSNYVNWYQQKPGKAPKVLIYDASTLQTGVPSRFSGSGSGTDFTFSISSLQPEDIATYYCQQYDSLPLTFGGGTKVEIK
With B14, the binding result was “no binding” with NPDP-peptide, “no binding” with NANP-peptide, “no binding” in the test with 22-110-peptide and “binds” in test [2].

B15: MGG3 (antibody, V domains shown)
VH: QEQLVESGGGVVQPGKSLRLSCAASGFTFSTFGMHWVRQAPGKGLEWVAVIWYDGSSKYHADSVKGRFTISRDNSKSTLYLQMNSLRAEDTAMYYCVKVGANWGWRYFDLWGRGTLVTVSS
VL: DIVMTQTPLSLSVTPGQPASISCKSSQSLLHSDGNTYLSWYLQKPGQSPQLLIYEVSSRFSGVPDRFSGSGSGTDFTLKISRVEADDVGVYYCMQGIHSWTFGQGTKVEIK
Take B15: the EC50 with NPDP-peptide is below 0.1 µg/mL. Moreover, the binding result in test [1] is reported as “no binding”.

B16: MGG2 (antibody, V domains shown)
VH: EVQLVESGGGLVQPGGSLRLSCAASGFTLNNYWMHWVRQAPGKGLVWVAHINIDGSTTTYADSVKGRFTISRDNAKNTLYLQMNSLRAEDTAVYYCAKGSIKAGGFWSGYSNWFDPWGQGTLVTVSS
VL: QAVVTQEPSLTVSPGGTVTLTCDSDPGPVTSGHYPYWFQQKPGQVPRTLIYDTSNKHSWTPARFSGSLLGGKAALTLSGAQPEDEADYYCLLSYGGAPVFGGGTKLTVL
With B16, the binding result with NPDP-peptide is “binds”; with NANP-peptide it was “binds”; in the test with 22-110-peptide, “binds”; in test [1] it was “no binding”.
